Measurements from doi:10.1101/580043.

Legend:
[1] = target: MBP-tagged PRG-1 PIWI domain (C. elegans); assay: MST
[2] = target: Recombinant full-length MBP-tagged DEPS-1 (C. elegans) (UniProt Q9N303); assay: MST
Recombinant full-length MBP-tagged DEPS-1 (C. elegans), sequence (Q9N303 whole entry): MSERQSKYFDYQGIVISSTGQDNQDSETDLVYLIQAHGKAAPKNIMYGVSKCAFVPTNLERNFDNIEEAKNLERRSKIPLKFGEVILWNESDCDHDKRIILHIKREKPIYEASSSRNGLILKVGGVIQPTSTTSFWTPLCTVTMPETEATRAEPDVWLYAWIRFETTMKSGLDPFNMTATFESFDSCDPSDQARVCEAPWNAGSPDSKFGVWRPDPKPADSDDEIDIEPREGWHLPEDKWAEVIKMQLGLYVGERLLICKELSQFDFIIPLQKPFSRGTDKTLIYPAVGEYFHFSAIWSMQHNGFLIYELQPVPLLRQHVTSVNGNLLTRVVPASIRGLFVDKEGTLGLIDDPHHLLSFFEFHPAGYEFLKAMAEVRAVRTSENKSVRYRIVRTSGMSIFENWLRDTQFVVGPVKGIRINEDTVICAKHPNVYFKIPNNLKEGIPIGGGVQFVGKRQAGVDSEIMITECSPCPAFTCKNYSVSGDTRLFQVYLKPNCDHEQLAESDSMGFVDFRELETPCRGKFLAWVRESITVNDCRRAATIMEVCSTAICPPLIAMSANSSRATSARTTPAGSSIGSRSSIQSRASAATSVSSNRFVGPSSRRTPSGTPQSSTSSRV

MBP-tagged DEPS-1 N-terminal fragment (DEPS-1^frag1) (domain or fragment), sequence (Q9N303 whole entry, the tested form may be a part): as the sequence (Q9N303 whole entry) above

Kd [1] [nM]	Kd [2] [nM]	Substance
151		MBP-tagged DEPS-1 N-terminal fragment (DEPS-1^frag1) (domain or fragment)
	349	MBP-tagged PRG-1 PIWI domain (domain or fragment)
